Data on one substance can be found in PMC7396596.

This test deals with Recombinant SCY2 (Scylla paramamosain). Kind of test: SPR; Biacore T200, CM5 chip; rSCY2 immobilised (~1,000 RU); rScyreprocin 12.5-400 nM flowed over; multiple cycle kinetics, 25°C, 30 μl/min, HEPES-buffered saline.

As to “His-tagged scyreprocin (rScyreprocin) (natural protein)”, the Kd is 20.8 nM.
